In the DeepSol protein solubility set:

assay: soluble on expression in E. coli; label from the status in PepcDB or PDB records

Row | Sequence | soluble on expression in E. coli
1 | MGQIIVSMYLSLDGVMEEPAWTAPYFNEEVAKFQSDLLFESEALLLGRVTYQGFAAAWPSMTDEEGFADKMNSIPKFVASTTLEKTEWNANLIKGNIVEEISKLKEQPGQNLLIYGSGELIQTLMQHDLIDEYHFMVNPVIVGSGKHLFKTGNDTKALKLIETRTTSSGVVILSYQPEKKE | not soluble
2 | MGQSLPLHLLKYPSKFSINIYAAPVSDAREMALGSKDIVFVGSRSAGKVYAVIPDKKNSHGTRVLTIASGLNMPNGVAFHKGALYVAEIGRILRFDNIESNLNNPPEPVVVTTKLPKEKAHGWRFISFGPDDKLYIGIGAPCNVCLMEDPRYATIMRMNTYGQDLEIYARGIRNTVGFDWDPLHHNLWFTDNGRDWLGDNLPPDELNVAPRKGMDFGFPYCYGKSTVDPVYGKIHSCSEFTPAVFEFPAHVAPLGMSFYTGKLFPSNYWGQIFISEHGSWNRSHKIGYQVTTVKIKNNHVTEVKPFISGWLQGEKAWGRPVDTLVMPDGSLLISDDYANVIYRVSYQLEHHHHHH | not soluble
3 | MGRAELLEGKMSTQDPSDLWSRSDGEAELLQDLGWYHGNLTRHAAEALLLSNGCDGSYLLRDSNETTGLYSLSVRAKDSVKHFHVEYTGYSFKFGFNEFSSLKDFVKHFANQPLIGSETGTLMVLKHPYPRKVEEPSIYESVRVHTAMQTGRTEDDLVPTAPSLGTKEGYLTKQGGLVKTWKTRWFTLHRNELKYFKDQMSPEPIRILDLTECSAVQFDYSQERVNCFCLVFPFRTFYLCAKTGVEADEWIKILRWKLSQIRKQLNQGEGTIRSRSFIFK | soluble
4 | MGRARDAILDALENLTAEELKKFKLQAATHQGSGAAPAGIQAPPQSAAKPGLHFIDQHRAALIARVTNVEWLLDALYGKVLTDEQYQAVRAEPTNPSKMRKLFSFTPAWNWTCKDLLLQALRESQSYLVEDLERS | soluble
5 | MGRKKKKVDKPWCWYCNREFDDEKILIQHQKAKHFKCHICHKKLFSGPGLSIHCMQVHKETIDKIPAAVHGRDNIHVEIYGMQGIPSGAYRGAADEEPDEKRSRMDNGPPMPTPMPFPQHFPFPGMPPMPSGPPPPSMAYGMPPMPSGMMPPRGMPGAYPPPRGYPPAPAPGVYMPPPGMPGAYPPPRMPIGHGPPGGPPMPGPPQRSRFDQPDGGDRWGPPMRGVPRTPPYENEHEHQDYQAPDDYNQGGYDDRFREGDRGGPPGGSRFDQVKAELKEEIVEPNNGPPTTSSGAAAASAAAVVASKLGSRTRIVYPDDHSLSLEERRVKMLFEKRSNPYH | soluble
6 | MGSCMKWDYGEMEDFSVSASGLFITNEGNFQYSNATLSYYDPATCEVENEVFYRANGFKLGDVAQSMVIRDGIGWIVVNNSHVIFAIDINTFKEVGRITGFTSPRYIHFLSDEKAYVTQIWDYRIFIINPKTYEITGYIECPDMDMESGSTEQMVQYGKYVYVNCWSYQNRILKIDTETDKVVDELTIGIQPTSLVMDKYNKMWTITDGGYEGSPYGYEAPSLYRIDAETFTVEKQFKFKLGDWPSEVQLNGTRDTLYWINNDIWRMPVEADRVPVRPFLEFRDTKYYGLTVNPNNGEVYVADAIDYQQQGIVYRYSPQGKLIDEFYVGIIPGAFCWKLEHHHHHH | not soluble
7 | MGSDKIHHHHHHAATYQVKKLMGFRHPTSYYAKSAKSGYLWNKSHTKRLHNLKNYPKTTWYATAKYSMKSVRNSGTYLKVTNGTGKAKGYVWTGYLKKGVNPANPNGTLTDPFGAAMSTYNVDDNLNKQLLNLFPGTIPDEPLQLAADFIFANAGANPDDYTSVIEELVGAENEPSVFRLSSDKRIQKNQNFLSFQRNSLKEELVTKHKKFTSFKGYRIGAYAFPKHDKRYGESMILLLPSN | not soluble
8 | MGSDKIHHHHHHACTDDSNDVVATTSEVIEQAEVPFSVVLKAMNSDGNDITTKGEVNGATLFVFDQNNDFFEQINVNKSTILSRRAIDINCPNSNDITVIAWSGINSGNEEISNMSKANIISDLQVSLKENNGIANIPSDLFYGQVTLHKNSSTKSTVSNELQIIRKTSIFQLSTKGLIKYLGSNAGNFEYRIKNTKSSLDYNGNPTGEEVEFAFPASFDEKGNLTTETQAIFPAQNITVELYKDGNLIFSSEKDKNGELFAATPGKRTEITFKYSGEVSANITIADWATVIQHITMN | not soluble
9 | MGSDKIHHHHHHACTGLLVGKKASTDGSVMISYAADSHSLYGEMYRWPAATWPKGAMLEVKEWDTGKPLGKIAQVENTYSVVGNMNEHQVAITESTFGGRHELVDTTGIMDYGSLIYIALQRSKSAREAIKVMTDLVKEYGYYSSGETFSIADKNEAWVMEMIGKGPGNKGAVWVAIRIPDDCISAHANQSRIQQIPFDDKENCIYSPDVVSFAREKGYFKGKDADFSFAKAYCPYDFSALRGCEARVWSFFRKYDTTMDQYTDFIKGDPSKEPMPLYVKPNRKLSVQDVQNGMRDHYEGTDLDMTKDAGAGSYKVPYRWRPMTFEVDGQEYTNERAIATQQTGFVIVPQMRNWLPDAIGGILWFAVDDADMAVFTPVYASVTDVPECYRVGNGDLLNFSWTSAFWIHNWVANMAYHKYSFMIQDIRKVQQELENGYQETVPAIDKAAQELYAKDPAETVKFLTWYSTTNSDSATARWKQLGEYLLVKYIDGNVKKEVNGQFKRNPYGQPASPDFPGYDEDYYRSIVKSAGDRLKVK | not soluble
10 | MGSDKIHHHHHHADSPDAFVPPTRLTRIAFDRRSAAFGQLDFLLGEIGRRMQERMEVVRLTPQRALDIGCGHGQGLAGLRARFPDAQIAGLDISGVMLAEAGQRDPQRRPGWVGRLLGKRPLFDLVQGDLATLPFAPGSFDLLWSNLALHWHPEPHRVFPEWHRVTRDDGLVMFSLFGPDTLRELRTAFEEVDTATHTLRFVDMHDIGDMLVHGGWSTPVMDMETLTVTYESPEMLLREVQAFGGLRAHPALRRAGLHGRRWHQAVCAALERLRNADGVIPLTFEIVYGHAWKLPPRGAQQVDELGRAVVPLDKIGRARPRR | not soluble
11 | MGSDKIHHHHHHAEAPLRPDQAAFRDLYREMVETDTSITTGSCTLLADRIEARLRGAGFADGQIHRFAVPEFPKEGGIVAILPGTSAKARPILLLGHLDVVVAKREDWTRDPYRLIEEGGYFYGRGVADMKAMDAIWVDMLMRFRKEGRKPRRTIKLALTCGEETSTAFNGAKWLAENRRDLIDAEFALNEGGSGRTDKPLEEGGRVVLQTIHVGEKTPVNYRVEATNPGGHSSMPVRDNAIYELSDALVRLRDYEFPVMLNDTTRAFFAKAGAARGDAMGKAMVAVSADPADKAAVALLDTDRSFHSMLRTTCVATLLDGGHANNALPQRAGANVNCRIFPGVTAEEVRGTLETVVADPRMTVVRTDNRGPDAKAPPLDPKIVGPAEKLVAKYYPGVPMVPMMSTGATDGVFLGAVGIPSYGPPGLFGNPDGNGVHGLNERISVQAVYAGRDLLTELVTAYAF | not soluble
12 | MGSDKIHHHHHHAQRVITASGKYITKNIKVTRFDQIYLKGSPTIEYTQSPGASKVQIAGSDNLVDLVECRVEGSTLIVNMKSRTNISYGKEGRLKILVSSPMLKSASLQGSGDIHLGSLKVEGLDVSLTGSGDIVAENITCNSDFSALLKGSGDIDVKGQLRAKSVNLNLQGSGDLKVAGVTGSEISAMLQGSGDLKVGSTNITSTVMAKLSGSGDMDVLDIRANSVSGQLDGSGDMTLSGSACNATLVLNRSGELSARKLDAENVTAHVNGSGEISCTATKTLETNIQGSGEISYKGNPSIRSTGKNHLNRL | not soluble
13 | MGSDKIHHHHHHATASESSKYIGLQLYSLRDLVKEEGIQKVLETAAKMGYKNLETASYDNGKIYGLAPAEFKKMVNDLGMKCTSAHLGQAFTKEKEAEVMSWWDQAIDAHNELGVKYMVQPWMPVNDKTTLDDLKMYCDYFNTVGYKTAAASIAFGYHNHDFEFRKIDDQLIYDFLLDNVSPNHVFFEMDVYWVMMGGGDPVAYLKNRPSQFKAIHIKDEKEIGASGKMNFKPIFDQMYANNVKDWYVEVEQYTNNDPVASVQQSYDFLNKADYVK | not soluble
14 | MGSDKIHHHHHHCRDELSTAGGKWVESSLRTIQTDTCTVRLSTILSDSLATSGDTVCQIGTIDDPVWGKIKAAFYAEYDVPTVSFSENADYRFDSITIRFYSSGNYLGDTLSPQRISLHSLSENLSLDEGYLYTTSKVSYHSTPLASFTFTPTPGETIREHEIRLPDEWGVEWFEHFQAGSREMESQEYFRDYFKGIAFIPEEGGNCVNGFMVNDSSLCITLYYHQTETDATELSADFLPNSDLRFNQVSCDRSRTALSSLQSGLNNGLPSEKSEHQSYLQGLTGMYINIDFPFLNDLRAEGRLVTIESALLRLYPVKGTYGKQYPLPESLTLYTADENNVTEDVVTDISGSSVQTGSLVTDEMMGEDTYYSFDITSFLQSNLGTVGYNRKILQLMLPDNLFFTTLNGVVFGDARHPDSNPVKLTLLYKTYNP | not soluble
